Legend:
Type in all cases: physicochemical
[1] = Gravimetric analysis of delivered dose per actuation; conditions: average of five doses (actuations)
Protocol: Gravimetric analysis was performed by weighing the Enbrel solution filled ampule before and after dosing. The average of five doses (actuations) were analyzed with an average of 4.25 mg+/−0.15 mg. The total delivered dose of Enbrel per actuation is therefore […] per actuation.
Gravimetric analysis was performed by weighing the Insulin solution filled ampule before and after dosing. The average of five doses (actuations) were analyzed with an average of 5.01 mg+/−0.53 mg. The total delivered dose of Insulin per actuation is therefore 34.8 mcg per actuation.

[2] = Size exclusion chromatography (SEC) stability after aerosol generation with test device
From the text: Alternately, to determine the stability of active agent after droplet generation, the generated stream of droplets including the active agent may be collected and […] may be employed to monitor for any changes in large molecule aggregation and protein fragment content. Soluble protein aggregates and protein fragment content may be calculated by comparing respective peak area under the SEC-HPLC curve of dispensed protein solutions with controls (solutions remaining in the device reservoir). Drug solutions for testing include Enbrel, (ENBREL® single-use prefilled syringes in 25 mg (0.51 mL of a 50 mg/mL solution of etanercept), and insulin, (Humalog, 200 units/ml, 3 ml […] is performed with a […] 3 μm SEC-2000 LC column 300×7.8 mm, SecurityGuard cartridge kit and SecurityGuard cartridges GFC-2000, 4×3 mm ID. Fifty microliters of Enbrel from the syringe (ENBREL® single-use prefilled syringes in 25 mg/0.51 mL of a 50 mg/mL solution of etanercept) is diluted (4:1) (4 parts, 200 mcl of the mobile phase buffer solution to 1 part, 50 mcl Enbrel from syringe). Fifty microliter of the diluted Enbrel is injected and separation was performed at a flow rate of 1.0 ml/min. The mobile phase buffer system included a PHOS. BUFF. SALINE. […] UV detection is performed at 280 nm. […] Aerosol collection and SEC is performed in a similar fashion as for the Enbrel analysis and aerosol collection. […] Fifty microliters of the collected aerosol spray is injected onto the SEC column for analysis, while 50 mcl of the […] insulin solution is injected onto the SEC column for control samples.

[3] = Gel electrophoresis of active agent after droplet generation
From the text: To determine the stability of active agent after droplet generation, the generated stream of droplets including the active agent is collected and the molecular weight of the active agent is verified using gel electrophoresis.

[4] = Anderson Cascade Impactor testing of Albuterol sulfate aerosol from the droplet delivery device (Example B); conditions: Albuterol 0.5%, 28.3 lpm
Protocol: Droplet size distribution and related functionality was evaluated for exemplary droplet delivery devices of the disclosure, including Anderson Cascade Impactor testing, total drug mass output rates, total drug respirable mass, delivery efficiencies and reproducibility.
The study was designed to evaluate device performance of a single Pneuma™ inhaler. A series of three (3) individual tests were conducted with a new disposable drug cartridge for each test. The testing platform utilizes an eight-stage nonviable Anderson Cascade Impactor (Thermo Fisher Scientific; Waltham, Mass.) equipped with a calibrated AALBORG model GFM47 mass flow meter (AALBORG Instruments and Controls; Orangeburg, N.Y.) for flow rate measurement.
At the conclusion of each test, the mouthpiece was rinsed with mobile phase and collected for HPLC analysis to determine the mass fraction of non-respirable aerosolized drug captured in the mouthpiece via inertial filtering. Following each test, impactor stage samples were extracted and recovered in solvent and analyzed for the active pharmaceutical ingredient (API) using a Dionex Ultimate 3000 nano-HPLC with UV detection (Thermo Scientific, Sunnyvale, Calif.).
The cascade impactor testing procedure involved fitting the mouthpiece into the Impactor USP throat with a mouthpiece connection seal. […]
The device was connected to the impactor USB throat, turned on, and actuated ten (10) times for each test. […] The i mouthpiece was rinsed in order to extract drug, and all stages of the cascade impactor were rinsed with a quantity of appropriate solvent (HPLC mobile phase). Extracted samples were placed in labeled and sterile HPLC vials, capped, and analyzed for drug content via HPLC with UV detection. The mouthpiece was extracted of residual drug and analyzed for drug content via HPLC to measure mouthpiece drug deposition in relation to the total collected on the impactor stages.
All system flow rates and impactor sample flows were monitored throughout each test period. […]

[5] = Enbrel control (not aerosolized)

Substance	average solution mass per dose (actuation), ampule weighed before and after dosing [1]	Peak Area %, Peak 3, Avg. ([2]; Insulin aerosolized, average of S1 and S2)	Peak Area %, Peak 3 ([2]; Insulin control (not aerosolized))	ejected dose that forms a fragment ([2]; Insulin, fragment elutes at ~25 minutes)	change in electrophoretic mobility (molecular weight) of post-aerosol active agent versus control [3]	Peak Area %, Peak 4 [2, 5]	Peak Area %, Peak 5 [2, 5]	dose that leads to formation of molecular fragments ([2]; Enbrel, fragments with elution times of 13 and 25 minutes)	droplets of an average diameter of less than about 4 μm ([4]; 10 actuations)	Fine ([4]; fraction summary table)	Throat ([4]; fraction summary table)
Insulin: insulin, Humalog, 200 units/ml, 3 ml kwikpens	5.01 mg	2.4905%	0%	2.5%	–	–	–	–	–	–	–
etanercept [Enbrel]	4.25 mg	–	–	–	negligible change	0%	0%	4.6%	–	–	–
Albuterol sulfate	–	–	–	–	–	–	–	–	over 70%	3.5	4.6

From patent US9962507B2, “Droplet delivery device for delivery of fluids to the pulmonary system and methods of use” (PNEUMA RESPIRATORY, INC., priority 2016, dated 2018)
